The values below are quoted from earlier work in PMC3471675.

Read-outs that look alike come from different tables or passages of the source.

The target in data set [1] is IL-2Rβ (Homo sapiens) (UniProt P14784).
Data set [2] shares this target. The source holds these as a separate data set.
The target of data set [3] is IL-4Rα (Homo sapiens) (UniProt P24394).
The target of data set [4] is IL-7Rα (Homo sapiens) (UniProt P16871).
The target of data set [5] is γc (Homo sapiens) (UniProt P31785).
For data set [6], the target named is IL-7Rα (Homo sapiens) (UniProt P16871). This is another data set of the same source.
Data set [7] deals with IL-21Rα (Homo sapiens) (UniProt Q9HBE5).
Sequence of UniProt Q9HBE5 (Q9HBE5 20-232): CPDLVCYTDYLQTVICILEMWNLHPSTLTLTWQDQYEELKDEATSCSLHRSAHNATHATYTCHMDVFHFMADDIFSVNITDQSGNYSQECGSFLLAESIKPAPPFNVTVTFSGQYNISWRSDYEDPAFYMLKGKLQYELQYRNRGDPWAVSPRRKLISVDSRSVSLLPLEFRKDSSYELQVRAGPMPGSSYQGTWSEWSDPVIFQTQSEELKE

Sequence of UniProt P24394 (P24394 26-232): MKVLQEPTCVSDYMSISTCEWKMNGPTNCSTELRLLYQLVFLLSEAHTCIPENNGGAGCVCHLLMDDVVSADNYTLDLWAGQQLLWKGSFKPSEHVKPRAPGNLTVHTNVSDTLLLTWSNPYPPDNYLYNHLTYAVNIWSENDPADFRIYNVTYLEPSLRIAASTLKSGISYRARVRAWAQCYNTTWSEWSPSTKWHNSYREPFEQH
Sequence of UniProt P31785 (P31785 23-262): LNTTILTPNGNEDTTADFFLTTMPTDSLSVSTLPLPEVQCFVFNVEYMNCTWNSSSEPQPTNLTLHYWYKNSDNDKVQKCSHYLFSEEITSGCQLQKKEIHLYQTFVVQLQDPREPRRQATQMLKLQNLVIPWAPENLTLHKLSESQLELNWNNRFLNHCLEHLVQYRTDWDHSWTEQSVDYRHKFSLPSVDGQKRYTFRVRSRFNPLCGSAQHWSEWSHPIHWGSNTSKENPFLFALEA

The Kd is the concentration at which binding is half-saturated. With IL-2 (from UniProt P60568), in data set [1], the Kd was 530 nM. On to IL-2Rβ (from UniProt P14784), for which, in data set [2], the Kd was 3000 nM. On to IL-4 (from UniProt P05112), for which the equilibrium dissociation constant (Kd) in data set [3] was 0.15 nM.

Turning to IL-7 (from UniProt P13232), in data set [4], the equilibrium dissociation constant (Kd) was 59 nM. Consider IL-7Rα (from UniProt P16871), for which the Kd in data set [5] was 3000 nM; in data set [6], 610000 nM. In the case of IL-21 (from UniProt Q9HBE4), the Kd in data set [7] was 0.07 nM.
